This is an account of results in patent US20230141177A1.

Assay [1] concerns the target Aβ aggregates in the high molecular weight (HMW) fraction of pooled soluble human AD brain extract (>70 kDa to ~700 kDa) (human) (UniProt P05067). As to the kind of experiment: sandwich SPR: HMW material captured by immobilized Clone 4, detected by aducanumab.
The target is the same in assay [2]. Kind of assay: sandwich SPR: HMW material captured by immobilized Clone 5, detected by aducanumab.
Assay [3] shares this target. As to the kind of experiment: sandwich SPR: HMW material captured by immobilized Clone 14, detected by aducanumab.
In assay [4] the target is AβO in the low molecular weight (LMW) fraction of pooled soluble human AD brain extract (~8 kDa to ~70 kDa) (human) (UniProt P05067). As to the kind of experiment: sandwich SPR: LMW material captured by immobilized Clone 4, detected by aducanumab.
Assay [5] addresses Aβ aggregates in the high molecular weight (HMW) fraction of pooled soluble human AD brain extract (>70 kDa to ~700 kDa) (human) (UniProt P05067). As to the kind of experiment: sandwich SPR: HMW material captured by immobilized Parental, detected by aducanumab.
Assay [6] concerns the target AβO in the low molecular weight (LMW) fraction of pooled soluble human AD brain extract (~8 kDa to ~70 kDa) (human) (UniProt P05067). As to the kind of experiment: sandwich SPR: LMW material captured by immobilized Clone 14, detected by aducanumab.
Assay [7] has the same target. As to the kind of experiment: sandwich SPR: LMW material captured by immobilized Parental, detected by aducanumab.

In the case of Aducanumab (antibody), the Bound Ab detection by aducanumab, HMW (BRU) in assay [1] turned out to be 10.4 BRU; in assay [2] it was 1.25 BRU; in assay [3] it was 5.7 BRU; in assay [5], 8.3 BRU. Further, the Bound Ab detection by aducanumab, LMW (BRU) in assay [4] is 7.7 BRU; in assay [6] it was 4.4 BRU; in assay [7], 5.8 BRU.
